Data: patent publication US20150299277A1 (UNIVERSITY OF TOKYO, published 2015)

T1: Myc- and His-tagged C-terminal domain human PTX3 (animal cell expressed) (human, UniProt P26022 179-381)
T1 construct: also called C-terminal domain of PTX3; C-terminal fragment of PTX3; not shown: Myc and His tags of the pEF4/Myc-His B vector
T1 sequence: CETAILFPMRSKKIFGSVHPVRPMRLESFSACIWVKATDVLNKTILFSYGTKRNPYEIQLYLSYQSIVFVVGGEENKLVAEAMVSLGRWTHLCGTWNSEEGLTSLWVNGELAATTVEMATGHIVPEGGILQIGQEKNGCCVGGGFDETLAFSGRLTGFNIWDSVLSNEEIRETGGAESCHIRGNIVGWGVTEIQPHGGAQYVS


What was measured:
[1] = biological target: T2, Myc- and His-tagged full-length human PTX3 (human, UniProt P26022 18-381); test: dot blot: fragments on nitrocellulose, PTX3 overlay, anti-myc detection (FIG. 12A left)
T2 construct: also called full-length PTX3; Myc-tagged full-length PTX3; not shown: Myc and His tags of the pEF4/Myc-His B vector

[2] = biological target: T1, Myc- and His-tagged C-terminal domain …; test: as above

| binding result [1] | binding result [2] | Binder |
| --- | --- | --- |
| binds |  | EIRRYQKSTELLIRKLPFQR [histone H3 fragment H3-6] |
| binds | binds | LVGLFEDTNLCAIHAKRVTI [histone H3 fragment H3-11] |
